Test results reported in patent publication US20090123934A1 (published 2009).

Assays:
[1] = target: wildtype PoloBD-fusion protein (Drosophila melanogaster) (UniProt P52304); assay: yeast two-hybrid, serial dilutions
HA-Polo = target: T1, HA-Polo (Drosophila melanogaster, UniProt P52304 1-576); assay: purified Flag-Mtrm incubated with HA-Polo, immunoprecipitated with anti-Mtrm antibody, anti-HA Western blot (FIG. 18)
T1 construct: Expressed with baculovirus in Sf9 cells; also called Polo with a 2XHA tag at the N-terminus; not shown: N-terminal 2XHA tag
T1 sequence (looked up): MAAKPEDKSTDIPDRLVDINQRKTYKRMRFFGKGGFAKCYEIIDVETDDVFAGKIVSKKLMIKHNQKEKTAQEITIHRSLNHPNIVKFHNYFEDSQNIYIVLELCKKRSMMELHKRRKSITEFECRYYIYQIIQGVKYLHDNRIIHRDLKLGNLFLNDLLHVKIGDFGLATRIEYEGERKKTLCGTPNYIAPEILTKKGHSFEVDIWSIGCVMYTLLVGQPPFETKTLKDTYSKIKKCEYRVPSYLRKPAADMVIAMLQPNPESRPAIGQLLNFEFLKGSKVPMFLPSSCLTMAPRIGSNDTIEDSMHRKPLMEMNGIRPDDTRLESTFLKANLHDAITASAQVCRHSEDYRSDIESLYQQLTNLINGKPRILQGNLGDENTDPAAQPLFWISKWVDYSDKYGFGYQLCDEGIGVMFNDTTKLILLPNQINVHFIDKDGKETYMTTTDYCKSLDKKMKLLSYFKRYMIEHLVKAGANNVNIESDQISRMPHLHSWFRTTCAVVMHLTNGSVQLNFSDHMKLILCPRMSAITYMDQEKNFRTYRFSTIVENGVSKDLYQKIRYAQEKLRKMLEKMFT
Procedure: Protein from affinity-purified Flag-Mtrm and HA-Polo was used for an in vitro binding experiment. 50 μg Flag-Mtrm was mixed with the same amount of HA-Polo in 60 μl of the above buffer and incubated for 1 hr at 30° C. As a control, 50 μg HA-Polo in 60 μl was also incubated. After incubation, both protein samples were immunoprecipitated using 50 μl protein A agarose beads coated with anti-Mtrm antibody (from guinea pig) for 1 hr at 4° C. The agarose beads were washed 6 times with the above protein buffer.
For Western blotting, the beads were suspended in 40 μl of SDS loading buffer (50 mM Tris-HCl (pH 6.8), 100 mM DTT, 2% SDS, 0.1% bromophenol blue, 10% glycerol) and heated for 3 min at 95° C. before being loaded on a PAGE gel. Western blotting for HA-Polo was conducted using anti-HA antibody from mouse and an Alkaline Phosphatase chromogen kit (BCIP/NBT) (Roche). (FIG. 18).

Polo kinase (Polo) [2] = target: T2, Polo kinase (Polo) (Drosophila melanogaster, UniProt P52304 1-576, T182 detected as phosphorylated (over 80%) in Polo bound to Mtrm); assay: anti-FLAG affinity purification from ovarian extracts, MudPIT mass spectrometry, three replicates
T2 construct: Endogenous Polo in ovary extracts; also called polo (FBgn0003124)
T2 sequence (looked up): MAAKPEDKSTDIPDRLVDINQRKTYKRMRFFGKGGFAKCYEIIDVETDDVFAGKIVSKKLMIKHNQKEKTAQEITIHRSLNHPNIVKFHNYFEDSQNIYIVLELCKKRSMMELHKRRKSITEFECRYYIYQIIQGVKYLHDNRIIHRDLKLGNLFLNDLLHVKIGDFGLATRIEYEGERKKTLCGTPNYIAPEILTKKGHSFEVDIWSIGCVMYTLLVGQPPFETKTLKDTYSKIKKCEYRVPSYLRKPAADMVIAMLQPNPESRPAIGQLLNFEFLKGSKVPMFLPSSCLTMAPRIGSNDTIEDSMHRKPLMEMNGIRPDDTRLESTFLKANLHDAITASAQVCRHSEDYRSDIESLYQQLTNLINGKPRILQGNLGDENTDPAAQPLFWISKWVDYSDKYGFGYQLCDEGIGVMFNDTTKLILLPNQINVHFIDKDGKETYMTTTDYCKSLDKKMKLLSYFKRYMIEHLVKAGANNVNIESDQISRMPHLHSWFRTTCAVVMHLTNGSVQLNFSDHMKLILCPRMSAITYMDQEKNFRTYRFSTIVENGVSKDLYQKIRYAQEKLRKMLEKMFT
Source text: We analyzed three independent affinity purifications from ovarian extracts expressing a C-terminally 3×FLAG-tagged Mtrm and used MudPIT mass spectrometry to identify interacting proteins. We then compared the identified proteins to those detected in five control FLAG immuno-precipitations from control (w¹¹¹⁸) flies.
In order to prepare a C-terminally 3×FLAG-tagged Mtrm for the MudPIT mass spectrometry assay, the UASP-mtrm-Flag (3×) construct was expressed in ovaries under the control of the nanos-GAL4 driver in a wild-type background. The extraction of protein from the ovaries was the same as described above. 100 μl of anti-FLAG beads were washed 2 times with pre-chilled 1×PBS and then 2 times with pre-chilled ovary extract buffer. The anti-FLAG beads were mixed with the extract supernatant, incubated and washed as described above. After washing, the beads bound with Mtrm-FLAG (3×) were finally transferred to a mini-column and washed with 25 ml of TBS (50 mM Tris-HCl, pH 7.4, 150 mM NaCl) at 4° C. When washing was completed, 300 μl TBS with 100 μg/ml 3×FLAG peptide was added to elute proteins. TCA was added to the eluted protein solution at a final concentration of 20%. The solution was mixed and kept on ice for at least 30 minutes. The solution was centrifuged at 14000 rpm at 4° C. for 15 minutes. […] The pellet was air dried and ready for the Mud PIT spectrometry analysis.

Polo kinase (Polo) [3] = target: T2, Polo kinase (Polo); assay: co-immunoprecipitation, ovary extracts
Procedure: To prepare the ovary extract for immunoprecipitation, ovaries from 100 yeast-fed female flies were dissected in 1×PBS. The ovaries were homogenized in an Eppendorf tube at 4° C. by a small pestle in 0.5 ml of ovary extract buffer containing 25 mM Hepes (pH 6.8), 50 mM KCl, 1 mM MgCl₂, 1 mM DTT and 125 mM sucrose with protease inhibitors cocktail (Calbiochem). The extract was centrifuged at 14000×g for 15 minutes at 4° C. and the supernatant was collected.
Protein A agarose beads were used for binding polyclonal antibodies from rabbit and guinea pig. Protein G agarose beads were used for binding monoclonal antibody from mouse. 50 ul of protein A or G-coated agarose was washed three times with PBST (PBS+0.1% Triton X-100). 10 ul of antibody was added to the beads in a final volume of 500 ul of PBS and mixed on a shaker for 1 hour at 4° C. The beads then were washed twice with PBST. The ovary extract was immunoprecipitated with the beads for 1 hour at 4° C. with continual shaking. After recovery by centrifugation at 1000×g for 3 minutes, the beads were washed 4 times with the cold ovary extract buffer with protease inhibitors, for 5 minutes each. For Western blotting, the beads were suspended in 30 μl of SDS loading buffer (50 mM Tris-HCl (pH 6.8), 100 mM DTT, 2% SDS, 0.1% bromophenol blue, 10% glycerol) and heated for 3 minutes at 95° C. before being loaded on a PAGE gel. […]

“MtrmT(40)A mutant MtrmAD-fusion protein (from UniProt Q23973 1-217)” gave a colonies at the third serial dilution [1] of 1 colonies and a colonies following the first serial dilution [1] of 7 colonies.

B1: Flag-Mtrm (other)
chain: MENSRTPTNKTKITLNRTPTLKERRWNTLKVNTSNVRCSTPIFGNFRSPNLSPIENMGTKGKSPVSPMRFATFKKVPTKVHPKQQQQQQHQHCHRTQLKPPPFVLPKPQEEIIEPEREIKSCSSPDTCSDDSNMETSLALESRRRSIKASNHSYVVNHAANVEQILMHMGLENYVTNFEEAHIDLVELASLERADLVKIGLNTDEDCNRIMDVLHTL
notes: Expressed with baculovirus in Sf9 cells; also called Mtrm with a Flag tag at the N-terminus; not shown: N-terminal Flag tag
B1: binds (HA-Polo).

B2: C-terminally 3×FLAG-tagged Mtrm (other)
chain: MENSRTPTNKTKITLNRTPTLKERRWNTLKVNTSNVRCSTPIFGNFRSPNLSPIENMGTKGKSPVSPMRFATFKKVPTKVHPKQQQQQQHQHCHRTQLKPPPFVLPKPQEEIIEPEREIKSCSSPDTCSDDSNMETSLALESRRRSIKASNHSYVVNHAANVEQILMHMGLENYVTNFEEAHIDLVELASLERADLVKIGLNTDEDCNRIMDVLHTL
modifications: phosphorylation detected on T40, S124 (less reproducibly), S48, S52 and S137
notes: Expressed in ovaries under nanos-GAL4 in a wild-type background; purified on anti-FLAG beads for MudPIT; also called Mtrm-Flag(3×); Mtrm-FLAG (3×); not shown: C-terminal 3×FLAG tag
In the case of B2, the “ratio between the two proteins (NSAF)” value (Polo kinase (Polo) [2]) is reported as 0.96 ratio of NSAF values.

B3: Mtrm with both PBD binding sites mutated (T(40)A and S(124)A) (other)
chain: MENSRTPTNKTKITLNRTPTLKERRWNTLKVNTSNVRCSAPIFGNFRSPNLSPIENMGTKGKSPVSPMRFATFKKVPTKVHPKQQQQQQHQHCHRTQLKPPPFVLPKPQEEIIEPEREIKSCSAPDTCSDDSNMETSLALESRRRSIKASNHSYVVNHAANVEQILMHMGLENYVTNFEEAHIDLVELASLERADLVKIGLNTDEDCNRIMDVLHTL
B3: no binding (Polo kinase (Polo) [3]).
